{
  "source": "patent US20070218061A1",
  "about": "(VASGENE THERAPEUTICS, published 2007)",
  "molecules": {"B1": {"name": "Murine EphrinA2-EC-Fc (Fc fusion)", "chain": "RNEDPARANADRYAVYWNRSNPRFQVSAVGDGGGYTVEVSINDYLDIYCPHYGAPLPPAERMERYILYMVNGEGHASCDHRQRGFKRWECNRPAAPGGPLKFSEKFQLFTPFSLGFEFRPGHEYYYISATPPNLVDRPCLRLKVYVRPTNETLYEAPEPIFTSN"}, "B2": {"name": "Murine EphrinB1-EC-Fc (Fc fusion)", "chain": "ATPLAKNLEPVSWSSLNPKFLSGKGLVIYPKIGDKLDIICPRAEAGRPYEYYKLYLVRPEQAAACSTVLDPNVLVTCNKPHQEIRFTIKFQEFSPNYMGLEFKKYHDYYITSTSNGSLEGLENREGGVCRTRTMKIVMKVGQDPNAVTPEQLTTSRPSKESDNTVKTATQAPGRGSQGDSDGKHETVNQEEKSGPGAGGGGSGDSDSFFNSK"}, "B3": {"name": "EphrinB2EC-AP from pAPTag2 (ligand)", "chain": "IVLEPIYWNSSNSKFLPGQGLVLYPQIGDKLDIICPKVDSKTVGQYEYYKVYMVDKDQADRCTIKKENTPLLNCAKPDQDIKFTIKFQEFSPNLWGLEFQKNKDYYIISTSNGSLEGLDNQEGGVCQTRAMKILMKVGQDASSAGSTRNKDPTRRPELEAGTNGRSSTTSPFVKPNPGSSTDGNSAGHSGNNILGSEGSSGIIPVEEENPDFWNREAAEALGAAKKLQPAQTAAKNLIIFLGDGMGVSTVTAARILKGQKKDKLGPEIPLAMDRFPYVALSKTYNVDKHVPDSGATATAYLCGVKGNFQTIGLSAAARFNQCNTTRGNEVISVMNRAKKAGKSVGVVTTTRVQHASPAGTYAHTVNRNWYSDADVPASARQEGCQDIATQLISNMDIDVILGGGRKYMFPMGTPDPEYPDDYSQGGTRLDGKNLVQEWLAKRQGARYVWNRTELMQASLDPSVTHLMGLFEPGDMKYEIHRDSTLDPSLMEMTEAALRLLSRNPRGFFLFVEGGRIDHGHHESRAYRALTETIMFDDAIERAGQLTSEEDTLSLVTADHSHVFSFGGYPLRGSSIFGLAPGKARDRKAYTVLLYGNGPGYVLKDGARPDVTESESGSPEYRQQSAVPLDEETHAGEDVAVFARGPQAHLVHGVQEQTFIAHVMAFAACLEPYTACDLAPPAGTTDAAHPG", "notes": "also called B2-AP; B2ECAP reagent"}},
  "key": {"[1]": {"biological_target": "HeV and NiV F and G envelope glycoproteins (on effector cells)", "test": "cell-based or functional assay"}, "[2]": {"biological_target": "HeV and NiV F and G envelope glycoproteins (on effector cells)", "test": "cell-based or functional assay", "remark": "listed apart in the source"}, "B4ECv3": {"biological_target": "T1, B4ECv3 (human, UniProt P54760 16-537)", "T1 construct": "also called B4ECv3 protein", "T1 sequence": "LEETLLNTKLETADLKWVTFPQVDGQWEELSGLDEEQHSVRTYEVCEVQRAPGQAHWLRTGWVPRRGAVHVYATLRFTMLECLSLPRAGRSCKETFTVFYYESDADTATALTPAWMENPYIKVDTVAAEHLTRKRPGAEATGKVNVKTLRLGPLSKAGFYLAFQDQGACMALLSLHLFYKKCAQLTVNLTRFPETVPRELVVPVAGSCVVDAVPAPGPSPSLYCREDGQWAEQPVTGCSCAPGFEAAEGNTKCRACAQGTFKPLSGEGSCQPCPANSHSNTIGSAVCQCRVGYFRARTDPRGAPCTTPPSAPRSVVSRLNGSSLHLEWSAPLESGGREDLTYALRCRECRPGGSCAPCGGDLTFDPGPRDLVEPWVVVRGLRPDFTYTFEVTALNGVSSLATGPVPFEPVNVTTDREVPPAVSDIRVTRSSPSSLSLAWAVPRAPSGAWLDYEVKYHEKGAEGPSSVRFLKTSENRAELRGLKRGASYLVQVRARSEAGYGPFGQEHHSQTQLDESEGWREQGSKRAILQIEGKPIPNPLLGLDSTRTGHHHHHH", "test": "biochemical assays; B4ECv3 on Ni-NTA agarose, 50 nM B2-AP, PNPP colorimetry"}},
  "note": "Read-outs that look alike come from different tables or passages of the source.",
  "data": [
    {"molecule": "Inactivated Human EphrinB2-Ec (from UniProt P52799 28-225) (ligand)", "values": [
      {"measurement": "% fusion (cell fusion assay), 0.1 µg/ml inhibitor", "setting": "[1]", "result": 103, "unit": "%"},
      {"measurement": "% fusion (cell fusion assay), 1.0 µg/ml inhibitor", "setting": "[1]", "result": 104, "unit": "%"},
      {"measurement": "% fusion (cell fusion assay), 10 µg/ml inhibitor", "setting": "[1]", "result": 77.3, "unit": "%"},
      {"measurement": "% fusion (cell fusion reporter gene assay, beta-Gal), 10 µg/ml protein", "setting": "[1]", "result": 83.3, "unit": "%"}
    ]},
    {"molecule": "human EphrinB2EC-Human serum albumin fusion protein (from UniProt P52799 28-229)", "values": [
      {"measurement": "% fusion (cell fusion assay), 0.1 µg/ml inhibitor", "setting": "[1]", "result": 85.3, "unit": "%"},
      {"measurement": "% fusion (cell fusion assay), 1.0 µg/ml inhibitor", "setting": "[1]", "result": 115, "unit": "%"},
      {"measurement": "% fusion (cell fusion assay), 10 µg/ml inhibitor", "setting": "[1]", "result": 64, "unit": "%"},
      {"measurement": "% fusion (cell fusion reporter gene assay, beta-Gal), 10 µg/ml protein", "setting": "[1]", "result": 54.8, "unit": "%"}
    ]},
    {"molecule": "Murine EphrinB2-Ec-Fc (from UniProt P52800 29-232) (Fc fusion)", "values": [
      {"measurement": "% fusion (cell fusion assay), 0.1 µg/ml inhibitor", "setting": "[1]", "result": 70.7, "unit": "%"},
      {"measurement": "% fusion (cell fusion assay), 1.0 µg/ml inhibitor", "setting": "[1]", "result": 1.87, "unit": "%"},
      {"measurement": "% fusion (cell fusion assay), 10 µg/ml inhibitor", "setting": "[1]", "result": 2.93, "unit": "%"},
      {"measurement": "% fusion (cell fusion reporter gene assay, beta-Gal), 10 µg/ml protein", "setting": "[1]", "result": 8.33, "unit": "%"}
    ]},
    {"molecule": "Bovine Serum Albumin (from UniProt P02769 25-607)", "values": [
      {"measurement": "% fusion (cell fusion assay), 0.1 µg/ml inhibitor", "setting": "[1]", "result": 112, "unit": "%"},
      {"measurement": "% fusion (cell fusion assay), 1.0 µg/ml inhibitor", "setting": "[1]", "result": 112, "unit": "%"},
      {"measurement": "% fusion (cell fusion assay), 10 µg/ml inhibitor", "setting": "[1]", "result": 124, "unit": "%"},
      {"measurement": "% fusion (cell fusion reporter gene assay, beta-Gal), 10 µg/ml protein", "setting": "[1]", "result": 126, "unit": "%"}
    ]},
    {"molecule": "B1", "values": [
      {"measurement": "% fusion (cell fusion assay), 0.1 µg/ml inhibitor", "setting": "[2]", "result": 81.3, "unit": "%"},
      {"measurement": "% fusion (cell fusion assay), 1.0 µg/ml inhibitor", "setting": "[2]", "result": 104, "unit": "%"},
      {"measurement": "% fusion (cell fusion assay), 10 µg/ml inhibitor", "setting": "[2]", "result": 112, "unit": "%"},
      {"measurement": "% fusion (cell fusion reporter gene assay, beta-Gal), 10 µg/ml protein", "setting": "[2]", "result": 117, "unit": "%"}
    ]},
    {"molecule": "B2", "values": [
      {"measurement": "% fusion (cell fusion assay), 0.1 µg/ml inhibitor", "setting": "[2]", "result": 109, "unit": "%"},
      {"measurement": "% fusion (cell fusion assay), 1.0 µg/ml inhibitor", "setting": "[2]", "result": 133, "unit": "%"},
      {"measurement": "% fusion (cell fusion assay), 10 µg/ml inhibitor", "setting": "[2]", "result": 147, "unit": "%"},
      {"measurement": "% fusion (cell fusion reporter gene assay, beta-Gal), 10 µg/ml protein", "setting": "[2]", "result": 140, "unit": "%"}
    ]},
    {"molecule": "B3", "values": [
      {"measurement": "binding result", "setting": "B4ECv3", "result": "binds"}
    ]}
  ]
}
